Publication PMC11965310

Tests used:
[1] = target: VHH H3-2; test: SEC; Superdex 75 Increase 10/300 GL, PBS, 16 °C; 20 µM VHH without or with 40 µM tau-Cter peptide
[2] = target: VHH H3-2; test: crystal structure; 280 μM H3-2 with 1 mM tau-Cter peptide; 23% PEG-MME 2000, 0.1 M potassium acetate; 1.8 Å

B1: VHH H3-2 (VHH)
VHH: EVQLQASGGGFVQPGGSLRLSCAASGYTSGDEIMGWFRQAPGKEREFVSAISWQSGTSTYYADSVKGRFTISRDNSKNTVYLQMNSLRAEDTATYYCAPMTLAETYYEWLISGYWGQGTQVTVSS
Work on B1 yielded a stoichiometry N [1] of 2 and a stoichiometry N [2] of 2.
